In patent US20160130351A1 (NOVIMMUNE S A, published 2016):

T1: carrier-free soluble human IL-6R (R&D) (human, UniProt P08887 20-365)
T1 construct: extracellular domain; also called shuIL-6R; shuIL6-R
T1 sequence (looked up): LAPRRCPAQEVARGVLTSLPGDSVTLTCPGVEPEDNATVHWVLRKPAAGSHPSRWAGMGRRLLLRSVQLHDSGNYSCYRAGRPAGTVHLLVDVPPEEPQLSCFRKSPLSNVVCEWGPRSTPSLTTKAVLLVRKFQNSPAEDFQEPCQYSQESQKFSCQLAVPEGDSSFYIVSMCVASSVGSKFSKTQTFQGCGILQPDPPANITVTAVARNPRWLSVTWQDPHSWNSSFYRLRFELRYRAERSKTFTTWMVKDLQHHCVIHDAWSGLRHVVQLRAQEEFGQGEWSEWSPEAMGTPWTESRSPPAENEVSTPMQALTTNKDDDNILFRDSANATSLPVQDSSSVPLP

T2: soluble cynomolgus monkey IL-6R (cynomolgus monkey, UniProt A0A2K5WN54 60-396)
T2 construct: extracellular domain; also called scyIL-6R; soluble cynomolgus monkey IL-6 Receptor; not shown: C-terminal His- or Avi-Tag
T2 sequence: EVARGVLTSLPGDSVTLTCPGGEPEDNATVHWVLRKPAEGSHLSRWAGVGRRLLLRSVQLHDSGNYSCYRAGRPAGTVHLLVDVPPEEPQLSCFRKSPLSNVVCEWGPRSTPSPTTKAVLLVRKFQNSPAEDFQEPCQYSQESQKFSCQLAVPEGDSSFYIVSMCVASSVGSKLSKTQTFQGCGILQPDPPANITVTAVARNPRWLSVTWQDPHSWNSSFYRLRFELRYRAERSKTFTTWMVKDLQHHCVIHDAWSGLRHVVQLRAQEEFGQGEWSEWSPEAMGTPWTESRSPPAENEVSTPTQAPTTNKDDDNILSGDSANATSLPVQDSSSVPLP


Tests used:
Assay in all cases: SPR (Biacore 2000), mAb captured on anti-human IgG Fc, analyte in solution, 25 C, 1:1 Langmuir
[1] = target: soluble human IL-6Rc (shuIL-6Rc) recombinant fusion protein of IL-6R and IL-6 (human) (UniProt P08887)
[2] = target: T1, carrier-free soluble human IL-6R (R&D)
Protocol: (§1) A CM5 Biacore chip was used and 1640 RU (response units) of an anti-human IgG Fc (Biacore AB, Uppsala, Sweden) was immobilized by EDC/NHS chemistry. […] The surface was regenerated after each cycle by injection of 3M magnesium chloride at 20 μL/min, for 30 s followed by lmin of stabilization time in HBS-EP buffer (Biacore AB, Uppsala, Sweden). Binding was measured by passing analytes carrier-free soluble human IL-6R (shuIL6-R; R&D), soluble human IL-6Rc (shuIL-6Rc) and soluble cynomolgus monkey IL-6R (scyIL-6R) in duplicates at the following concentrations: 100 nM, 50 nM, 25 nM, 12.5 nM, 6.25 nM and 0nM. All solutions were diluted in HBS-EP buffer. Injection was performed at 50 μl/min for 3 min followed by 12 min of dissociation time and the temperature was set at 25° C.

[3] = target: T2, soluble cynomolgus monkey IL-6R
Protocol: as §1

| Kd [1] [nM] | koff [1] [s⁻¹] | kon [1] [M⁻¹ s⁻¹] | Kd [2] [nM] | koff [2] [s⁻¹] | kon [2] [M⁻¹ s⁻¹] | Kd [3] [nM] | koff [3] [s⁻¹] | kon [3] [M⁻¹ s⁻¹] | Binder |
| --- | --- | --- | --- | --- | --- | --- | --- | --- | --- |
| 4.92 | 0.000246 | 50100 | 0.121 | 0.00011 | 829000 | 2.05 | 0.000213 | 104000 | NI-1201-A antibody (antibody, V domains shown) VH: QVQLVQSGAEVKKPGSSVKVSCKASGGTFSSYAISWVRQAPGQGLEWMGGIIPLFDTTKYAQKFQGRVTITADESTSTAYMELSSLRSEDTAVYYCARDRDILTDYYPMGGMDVWGQGTTVTVSS VL: AIQLTQSPSSLSASVGDRVTITCRASQGISSVLAWYQQKPGKAPKLLIYDASSLESGVPSRFSGSGSGTDFTLTISSLQPEDFATYYCQQSNSYPLTFGGGTKVEIKR |
| 4.43 | 0.000237 | 53400 | 0.107 | 9.4e-05 | 875000 | 1.81 | 0.000207 | 115000 | NI-1201-B antibody (antibody, V domains shown) VH: QVQLVQSGAEVKKPGSSVKVSCKASGGTFSSYAISWVRQAPGQGLEWMGGIIPLFDTTKYAQKFQGRVTITADESTSTAYMELSSLRSEDTAVYYCARDRDILTDYYPLGGMDVWGQGTTVTVSS VL: AIQLTQSPSSLSASVGDRVTITCRASQGISSVLAWYQQKPGKAPKLLIYDASSLESGVPSRFSGSGSGTDFTLTISSLQPEDFATYYCQQSNSYPLTFGGGTKVEIKR |
| 4.89 | 0.000222 | 45300 | 0.134 | 0.000102 | 761000 | 1.79 | 0.0002 | 112000 | NI-1201-D antibody (antibody, V domains shown) VH: QVQLVQSGAEVKKPGSSVKVSCKASGGTFSSYAISWVRQAPGQGLEWMGGIIPAFETTKYAQKFQGRVTITADESTSTAYMELSSLRSEDTAVYYCARDRDILTDYYPLGGMDVWGQGTTVTVSS VL: AIQLTQSPSSLSASVGDRVTITCRASQGISSVLAWYQQKPGKAPKLLIYDASSLESGVPSRFSGSGSGTDFTLTISSLQPEDFATYYCQQSQSYPLTFGGGTKVEIKR |
| 5.03 | 0.00024 | 47700 | 0.11 | 0.00011 | 992000 | 2.03 | 0.000225 | 111000 | NI-1201-C antibody (antibody, V domains shown) VH: QVQLVQSGAEVKKPGSSVKVSCKASGGTFSSYAISWVRQAPGQGLEWMGGIIPAFETTKYAQKFQGRVTITADESTSTAYMELSSLRSEDTAVYYCARDRDILTDYYPLGGMDVWGQGTTVTVSS VL: AIQLTQSPSSLSASVGDRVTITCRASQGISSVLAWYQQKPGKAPKLLIYDASSLESGVPSRFSGSGSGTDFTLTISSLQPEDFATYYCQQSNSYPLTFGGGTKVEIKR |
